# Data published in patent US20240076343A1 (CEPHALON, published 2024).
# Positions count from the first letter of the chain named.
# B1: A2-hIgG4 (antibody, V domains shown)
# VH: DVQLVESGGGLVQPGGSLRLSCAASGFTFDISAMSWVRQAPGKGLEWVSTISGSAYSTYYADSVKGRFTISRDNSKSTLYLQMNSLRAEDTAVYYCAREIFSDYWGLGTLVTVSS
# VL: QSVLTQPPSASGTPGQRVTISCSGSTSNIGRESVYWYQQLPGTAPKLLIYSNVQRPSGAPNRFSGSKSGTSASLAISGLQSEDEADYYCGTWDDSLNGWVFGGGTKLTVLG
# B2: G12-hIgG4 (antibody, V domains shown)
# VH: DSLVESGGGLVQPGGSLRLSCAASGFTFDISAMSWVRQAPGKGLEWVSTISGSAYSTYYADSVKGRFTISRDNSKSTLYLQMNSLRAEDTAVYYCAREIFSDYWGLGTLVTVSS
# VL: B1 VL with S51L, V53S, A59V, N61D, E84V
# B3: A2-hIgG4 (antibody, V domains shown)
# VH: B1 VH
# VL: B1 VL
# B4: D12-hIgG4 (antibody, V domains shown)
# VH: B1 VH
# VL: B1 VL with S25N, A59V, N61D
# B5: 2H7-hIgG4 (antibody)
# heavy: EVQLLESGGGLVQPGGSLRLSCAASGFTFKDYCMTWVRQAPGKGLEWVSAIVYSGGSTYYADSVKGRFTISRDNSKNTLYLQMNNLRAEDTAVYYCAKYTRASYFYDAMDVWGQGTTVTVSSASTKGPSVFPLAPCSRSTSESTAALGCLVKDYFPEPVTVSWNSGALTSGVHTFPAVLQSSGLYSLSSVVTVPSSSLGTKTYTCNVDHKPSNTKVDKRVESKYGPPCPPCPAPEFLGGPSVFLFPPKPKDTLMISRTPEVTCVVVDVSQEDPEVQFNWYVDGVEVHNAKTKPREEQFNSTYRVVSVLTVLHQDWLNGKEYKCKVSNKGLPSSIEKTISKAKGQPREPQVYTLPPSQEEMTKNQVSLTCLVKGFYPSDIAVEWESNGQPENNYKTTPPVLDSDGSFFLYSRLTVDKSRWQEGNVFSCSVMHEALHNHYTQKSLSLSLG
# light: EIVLTQSPGTLSLSPGERATLSCRASQSIGKSFLAWYQQKPGQAPRLLIYDASTRAADIPARFSGSGSGTDFTLTISSLEPEDFAVYYCQQYYDWPPLSFGGGTKVEIKRTVAAPSVFIFPPSDEQLKSGTASVVCLLNNFYPREAKVQWKVDNALQSGNSQESVTEQDSKDSTYSLSSTLTLSKADYEKHKVYACEVTHQGLSSPVTKSFNRGEC
# B6: Anti-PD-1 clone J110 hIgG1 (antibody, V domains shown)
# VH: DVQLQESGPGLVKPSQSLSLTCTVTGHSITSDYAWNWIRQFPGDKLEWMGYISYSGYTTYNPSLKSRVSITRDTSKNQFFLQLNSVTTEDTATYFCARDLDYGPWFAYWGQGTLVTVSA
# VL: DIQMTQSPASLSASVGETVTLTCRASENIHNYLAWYQQKQGKSPQLLVYNVKTLADGVPSRFSGSGSGTQYSLKINSLQPEDFGSYYCQHFWSSPWTFGGGTKVEIKR
# B7: OMC.1.B6-hIgG4 (antibody, V domains shown)
# VH: EVQLLESGGGLVQPGGSLRLSCAASGFTFSSNYMSWVRQAPGKGLEWVSAISSSGGTIFYADSVKGRFTISRDNSKNTLYLQMNSLRAEDTAVYYCAKHKWNAVYYDGMDVWGQGTTVTVSS
# VL: QSVLTQPPSASGTPGQRVTISCSGSNSNIGRNLVNWYQQLPGTAPKLLIYTIDQRPSGVPDRFSGSKSGTSASLVISGLQSEDEADYYCAAWDGSLNAWVFGGGTKLTVLG
# B8: OMC.1.B6-hIgG4 (antibody, V domains shown)
# VH: B7 VH
# VL: B7 VL
# B9: OMC.1.D6-hIgG4 (antibody, V domains shown)
# VH: B7 VH with S31D, N32Y, T69I, A103D, G108A
# VL: B7 VL with I52V, V75A, Q80A, G94S, A98S
# B10: OMC.1.D6-hIgG4 (antibody, V domains shown)
# VH: B7 VH with S31D, N32Y, T69I, A103D, G108A
# VL: B7 VL with I52V, V75A, Q80A, G94S, A98S
# B11: 2A3.H7-hIgG4 (antibody, V domains shown)
# VH: EVQLLESGGGLVQPGGSLRLSCAASGFTFKDYCMTWVRQAPGKGLEWVSAIVYSGGSTYYADSVKGRFTISRDNSKNTLYLQMNNLRAEDTAVYYCAKYTRASYFYDAMDVWGQGTTVTVSS
# VL: EIVLTQSPGTLSLSPGERATLSCRASQSIGRSFLAWYQQKPGQAPRLLIYDASTRAADIPARFSGSGSGTDFTLTISSLEPEDFAVYYCQQYYDWPPLSFGGGTKVEIKR
# B12: H7-632-hIgG1-LAGA (antibody, V domains shown)
# VH: B11 VH with D31S, C33A, T35H, N85S, T100D
# VL: B11 VL with G30S, R31S, T54D, A57T, D58G, A61D, S78R
# B13: 1H9-hIgG4 (antibody, V domains shown)
# VH: B11 VH with A23V, A24G, T28N, F29L, N85S, A102G
# VL: B11 VL with A61D, S77N, S78R, S99T
# B14: 1D5-hIgG4 (antibody, V domains shown)
# VH: B11 VH with A23V, A24G, T28N, N85S, A102G
# VL: B11 VL with A57T, A61D, D71E, E80Q, P81S, S99T
# B15: OMC.2.C6-hIgG4 (antibody, V domains shown)
# VH: EVQLLESGGGLVQPGGSLRLSCTASGFTFSSYEMQWVRQAPGKGLEWVLGITSSSSHIFYADSVKGRFTVSRDNSKNTLYLQMNSLRAEDTAVYYCTKDLNSYYGLDVWGQGTTVTVSS
# VL: QSVMTQPPSASGTPGQRVTISCSGSTSNLGNNYVSWYQHLPGTAPKLLIYGNDQRPSGVPDRFSGSKSGTSASLAISGLQSDDEADYYCSSWDASLNVWVFGGGTKLTVLG
# B16: OMC.2.C6-hIgG4 (antibody, V domains shown)
# VH: B15 VH
# VL: B15 VL
# B17: C51E6-5-hIgG4 (antibody, V domains shown)
# VH: QVQLVQSGSELKKPGASVKVSCKASGYSLYGTSMHWVRQAPGQGLEWMGYISPFTGRATYAQGFTGRFVFSLDTSVSTAYLQISSLKAEDTAVYYCARDYDYRYYYAMDYWGQGTTVTVSS
# VL: EIVLTQSPDFQSVTPKEKVTITCTASESVPPQFLHWYQQKPDQSPKLLIYASRERASGVPSRFSGSGSGTDFTLTINSLEAEDAATYYCHQFHRSPLTFGGGTKLEIKR
# B18: C51E6-5-hIgG4 (antibody, V domains shown)
# VH: B17 VH
# VL: B17 VL
# How the values were obtained:
# [1] = molecular target: human PD-1 on Jurkat Effector cells of the PD-1/PD-L1 blockade bioassay (Promega, Cat #J1255) (human, UniProt Q15116 25-288); assay: cell-based or functional assay
# [2] = molecular target: T1, native human PD-1 on PMA/ionomycin-activated primary human T cells (human, UniProt Q15116 25-288); assay: flow cytometry, activated human CD3+CD4+ T cells
# T1 construct: whole, on cells; also called native hPD-1
# Protocol: (§1) The binding of anti-hPD-1 antibodies and anti-hPD-1-attenuated hIL-2 fusion proteins on activated primary T cells expressing hPD-1 was examined by flow cytometry. […] Cells were then stained with 1:20 dilution of Allophycocyanin-conjugated anti-human IgG Fc to detect bound antibody. To delineate immune subsets, a cocktail of surface markers included anti-human CD3, anti-CD4, and anti-CD8 antibodies was used. […] Cells were analyzed on the BD Fortessa (BD Biosciences), FlowJo software version 10 was used to gate on T cell subsets then calculate gMFI of the allophycocyanin signal. EC₅₀ values were calculated from the gMFI across the titrated concentrations using GraphPad Prism 7 software. To test the binding of anti-hPD-1-hIL-2 fusion proteins, cryopreserved CD3+ T cells were activated with PMA/ionomycin and flow cytometry binding was performed identically as described above.
# [3] = molecular target: T1, native human PD-1 on …; assay: flow cytometry, activated human CD3+CD8+ T cells
# Protocol: as §1
# [4] = molecular target: T2, human PD-1 (amino acids 1-185) on transfected Jurkat cells (human, UniProt Q15116 21-185); assay: flow cytometry on Jurkat cells expressing hPD-1; no competitor
# T2 construct: also called hPD-1; Jurkat+hPD-1 cell line
# Protocol: (§2) Briefly, Jurkat cells stably expressing hPD-1 (as described in Protocol A above) were washed and re-suspended in FACS buffer containing 1:50 dilution of human FcR Blocking reagent. Cells were incubated at 4° C. for 10 minutes and washed. […] Cells were washed and incubated with test antibodies or antibody-attenuated hIL-2 fusion proteins serially diluted six-fold for an 8-point curve in 100 μL volume for one hour at 4° C. To detect bound test anti-hPD-1 antibodies or anti-hPD-1-attenuated hIL-2 fusion proteins, cells were washed again and incubated with 1:40 dilution of Allophycocyanin-conjugated anti-human IgG Fc monoclonal antibody for 45 minutes on ice. Cells were washed and re-suspended in FACS buffer containing 1:1000 dilution of Sytox Green (Thermo Fisher). […] Flow cytometry was carried out on the BD Canto II, BD Celesta, or BD Fortessa (BD Biosciences) flow cytometers and gMFI was calculated using FlowJo software version 10. EC₅₀ values were calculated from the gMFI of the Allophycocyanin signal across the titrated concentrations using GraphPad Prism 7 software.
# [5] = molecular target: T2, human PD-1 (amino acids 1-185) on …; assay: flow cytometry, Jurkat+hPD-1 cells; competitor 10 µM anti-hPD-1 #1-mIgG2b-N297A
# Protocol: as §2
# [6] = molecular target: T2, human PD-1 (amino acids 1-185) on …; assay: flow cytometry on Jurkat cells expressing hPD-1; cells pre-incubated with 10 µM anti-hPD-1 #1-mIgG2b-N297A
# Protocol: as §2
# [7] = molecular target: T2, human PD-1 (amino acids 1-185) on …; assay: flow cytometry on Jurkat cells expressing hPD-1; cells pre-incubated with 10 µM anti-hPD-1 #2-mIgG2b-N297A
# Protocol: as §2
# [8] = molecular target: T3, human PD-1 on Jurkat cells (Jurkat+hPD-1) (human, UniProt Q15116 21-185); assay: flow cytometry on Jurkat cells expressing hPD-1
# T3 construct: extracellular domain and a portion of the transmembrane domain, stably expressed on Jurkat cells
# Protocol: EC₅₀ values were calculated from the geometric mean fluorescent intensity (gMFI) across the titrated concentrations using GraphPad Prism 7 software.
# [9] = molecular target: T4, recombinant His-tagged human PD-1 (Acro Biosystems) (human, UniProt Q15116 25-167); assay: SPR Carterra LSA;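 also: antibodies or fusion proteins amine-coupled on an HC30M chip, soluble His-tagged human or cynomolgus PD-1 titrated over them, non-regenerative kinetics, constants fitted from titration curves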
# T4 construct: His-tagged; also called hPD-1
# Protocol: Surface plasmon resonance binding analysis was performed using a high-throughput SPR Carterra® LSA™ to determine binding affinities of anti-hPD-1 antibodies and anti-hPD-1-attenuated hIL-2 fusion proteins. Proteins were diluted to 2 or 10 μg/mL in 10 mM sodium acetate pH 4.5 containing 0.01% Tween-20 and coupled to a HC30M (Carterra Bio) chip using sulpho-N-hydroxysuccinimide/1-ethyl-3-(3-dimethylamino) propyl carbodiimide (sulpho-NHS/EDC) coupling chemistry and blocked with ethanolamine. A non-regenerative kinetic coupling process was used to determine binding kinetics to commercially sourced recombinant His-tagged human PD-1 and His-tagged cynomolgus PD-1 (Acro Biosystems).
# The association constants (kₐ), dissociation constants (kd), and equilibrium constants (KD) of various anti-hPD-1 antibodies and anti-hPD-1 antibody-attenuated hIL-2 fusion proteins binding to recombinant human or cynomolgus PD-1 proteins was determined from the titration curves and the Carterra Kinetics software. The maximal feasible SPR signal generated (Rₘₐₓ) and residual standard deviation (Res SD) was also calculated.
# [10] = molecular target: T5, recombinant His-tagged cynomolgus PD-1 (Acro Biosystems) (cynomolgus, UniProt B0LAJ3 25-170); assay: SPR Carterra LSA;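 also: antibodies or fusion proteins amine-coupled on an HC30M chip, soluble His-tagged human or cynomolgus PD-1 titrated over them, non-regenerative kinetics, constants fitted from titration curves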
# T5 construct: His-tagged; also called Cyno PD-1; not shown: His tag (and any linker) of the Acro Biosystems product
# [11] = molecular target: T2, human PD-1 (amino acids 1-185) on …; assay: flow cytometry, Jurkat+hPD-1 cells
# [12] = molecular target: T2, human PD-1 (amino acids 1-185) on …; assay: flow cytometry on Jurkat cells expressing hPD-1; no competitor; remark: listed apart in the source
# Protocol: as §2
# [13] = molecular target: T2, human PD-1 (amino acids 1-185) on …; assay: flow cytometry on Jurkat cells expressing hPD-1; cells pre-incubated with 10 µM anti-hPD-1 #1-mIgG2b-N297A; remark: listed apart in the source
# Protocol: as §2
# [14] = molecular target: T2, human PD-1 (amino acids 1-185) on …; assay: flow cytometry on Jurkat cells expressing hPD-1; cells pre-incubated with 10 µM anti-hPD-1 #2-mIgG2b-N297A; remark: listed apart in the source
# Protocol: as §2
# T1 sequence (Q15116 25-288): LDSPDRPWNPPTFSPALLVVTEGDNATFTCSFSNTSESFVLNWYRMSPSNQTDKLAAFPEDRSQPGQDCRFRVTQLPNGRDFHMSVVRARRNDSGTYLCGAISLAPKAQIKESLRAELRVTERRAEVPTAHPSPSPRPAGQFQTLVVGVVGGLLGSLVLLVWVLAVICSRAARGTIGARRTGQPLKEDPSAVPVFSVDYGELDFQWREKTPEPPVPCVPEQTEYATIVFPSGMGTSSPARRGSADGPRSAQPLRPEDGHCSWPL
# human PD-1 on Jurkat Effector cells of the PD-1/PD-L1 blockade bioassay (Promega, Cat #J1255), sequence (Q15116 25-288): as above
# T4 sequence (Q15116 25-167 limits assumed): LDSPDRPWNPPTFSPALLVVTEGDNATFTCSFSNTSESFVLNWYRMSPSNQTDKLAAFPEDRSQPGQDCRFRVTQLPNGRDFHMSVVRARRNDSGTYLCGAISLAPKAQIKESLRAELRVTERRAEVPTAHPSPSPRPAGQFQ
# T2 sequence (Q15116 21-185 limits assumed): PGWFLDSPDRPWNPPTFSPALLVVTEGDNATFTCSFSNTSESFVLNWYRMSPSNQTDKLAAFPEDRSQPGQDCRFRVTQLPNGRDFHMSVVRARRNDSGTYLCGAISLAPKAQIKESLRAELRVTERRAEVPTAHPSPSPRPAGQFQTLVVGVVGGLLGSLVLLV
# T3 sequence (Q15116 21-185 limits assumed): as above
# T5 sequence (B0LAJ3 entry or part of it limits assumed): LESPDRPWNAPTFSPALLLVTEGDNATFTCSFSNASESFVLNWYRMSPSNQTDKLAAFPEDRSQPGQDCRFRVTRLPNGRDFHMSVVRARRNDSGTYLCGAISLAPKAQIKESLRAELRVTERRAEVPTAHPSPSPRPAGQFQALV
binder,measurement,setting,value
B1,"luminescence (RLU), PD-1/PD-L1 blockade bioassay",[1],~3000 RLU
same,EC50,[2],30 nM
same,EC50,[3],22 nM
same,EC50 (read off the curve),[4],~6 nM
same,fold shift of the dose-titration curve,[5],< 10 fold
same,EC50 (read off the curve),[6],~10 nM
same,EC50 (read off the curve),[7],~20 nM
B2,EC50,[8],5.36 nM
B3,EC50,[8],5.97 nM
B4,EC50,[8],9.67 nM
B5,EC50,[8],0.277 nM
B6,Kd,[9],10 nM
same,koff,[9],0.001 s⁻¹
same,kon,[9],100000 M⁻¹ s⁻¹
same,Kd,[10],1200 nM
same,koff,[10],0.05 s⁻¹
same,kon,[10],41000 M⁻¹ s⁻¹
B7,"luminescence (RLU), PD-1/PD-L1 blockade bioassay",[1],~3000 RLU
B8,EC50,[8],7.42 nM
B9,"luminescence (RLU), PD-1/PD-L1 blockade bioassay",[1],~3000 RLU
B10,EC50,[8],16 nM
B11,"luminescence (RLU), PD-1/PD-L1 blockade bioassay",[1],~3000 RLU
B12,EC50,[8],0.115 nM
B13,"luminescence (RLU), PD-1/PD-L1 blockade bioassay",[1],~3000 RLU
B14,"luminescence (RLU), PD-1/PD-L1 blockade bioassay",[1],~3000 RLU
B15,"luminescence (RLU), PD-1/PD-L1 blockade bioassay",[1],~3000 RLU
B16,EC50,[8],11.5 nM
B17,"luminescence (RLU), PD-1/PD-L1 blockade bioassay",[1],~3000 RLU
same,EC50,[11],2 to 4 nM
same,EC50,[2],12 nM
same,EC50,[3],16 nM
same,EC50 (read off the curve),[12],~2 nM
same,fold shift of the dose-titration curve,[5],< 10 fold
same,EC50 (read off the curve),[13],~9 nM
same,EC50 (read off the curve),[14],~8 nM
B18,EC50,[8],2.05 nM
